Laboratory results reported in patent US20250034594A1, “RNA-GUIDED GENOME RECOMBINEERING AT KILOBASE SCALE” (THE BOARD OF TRUSTEES OF THE LELAND STANFORD JUNIOR …, priority 2021, published 2025).

B1: SSAP_293: SEQ ID NO: 462; Brevibacillus porteri (protein)
chain: ADQNKLVVIYNNLEKLLDSKREAMPTSFNKTRFLQNCMTVLQETKDIELCNPTTVARTMLKGAFLGLDFFNKECYAVVYKGSVEFQTDYKGEVKLAKKYSTKPVREVYAKLVREGDEFAEEINSGNQTINFRPKPFNNEEILGAFAVVNYMDGTMAYDIMSKEEIEKIKENFSRKSKQTGEYSKAWVVTPGEMYKKTVLRRLCKNIDLDFDTIEQRQAFEDAGDVDFNQEVKPAQQSPLNSTVIEAEFEEVSEEQTNAAEQE
modifications: Brevibacillus porter
notes: Brevibacillus porteri
B2: SSAP_245: SEQ ID NO: 414; Paenibacillus macquariensis subsp. defensor (protein, listed as Paenibacillus macquariensis)
chain: SDKLLVIHKNLENLLDSKREAMPSNFNKTRFLQNCMTVLQDTRDIDKCDATSVARTMLKGAFLGLDFFNKECYAITYAGAVQFQTDYKGEKKLAKKYSVRPVRDIYAKLVKEGDDFKEEVKDGQQTIQFAPKPFNDGEVLGAFAVALFEDGGLVYEVMSKVDIETTRKNYSKQANGQAWTKSPGEMYKKTVLRRLCKNIELDFDTIEQAQAFEDSGDMDLNKEVKPPQVSPLNATVIDAEYTEIREGDPNATNQE
B3: SSAP_86: SEQ ID NO: 255 (protein)
chain: ADLTKTANGADLAAAIGGKQAETGRATAFDLVKSMEAEFAKALPRHVPVEQFMRTAVTELRQNADLQRSTSESLLGAFLTAARLGLEVGGPMGEFYLTPRFAKLPGQDQKAWQVVPIVGYRGLVKLARNAGVGAVKAWVVYEGDHFVEGANSERGPFFDFHPVPGDPAGRKEVGVLAVARLSGGDVQHTYLTIEQVEKRKARGSAGDKGPWATDRAAMIRKSGIRALAGELPQSTLLALARVVDEEVQTYVPGSLVDVGTGELEA
B4: SSAP_84: SEQ ID NO: 253; Bet Fimbriiglobus ruber (protein)
chain: TDIAHRSYSAPQLSLIRRTVAKDTNQDEFDLFIEICKQQGLDPFKKQIFAQVYNKDKADKRQIVIVTSIDGYRAKAQRCGDYRPAEEETRFEADAALKIRRQPMGSFVRSCGLQVRPGQGVVSRVGEARWDEFAPLDDAEFDWVDTGETWPDTGKPKKKKVAKSAKKTLKEGNWKNMPHVMLGKCAEAQALGGGGRKRSAACTSKRRWTRSTWT
modifications: Fimbriiglobus ruber
B5: SSAP_271: SEQ ID NO: 440; Nocardia ninae (protein, listed as Nocardia ninae)
chain: AESISKEVARQANPLAVVAKYQNELGKSMPAAIRGDVGRWMMVAEMAVRKNPKLLSIVQADQGASLMRALIECARLGHEPGTKYFYLVPRGNQISGEEGYHGIIKRVLNSGHYQKVLARTVFERDEYSFDPLTDQLPTHVPASGERGKPVSAYAFALHWDGTPSTVAEASPERIAAAKAKSYGTDRKDSPWQSVTGVMYRKTAIRELEPYVHTSAEPQPRQDNAGSRGAVMDPSTYDDAEPLDADVLDITADQIAEHDGEGAL
B6: SSAP_90: SEQ ID NO: 259; Xenorhabdus poinarii (protein, listed as Xenorhabdus poinarii)
chain: TNTPPLAQADLQKAQPQTKVAATKDQALIQFINKPSMKAQLAAALPRHMAPDRMIRIVTTEIRKTPALANCDMQSFVGAVVQCSQLGLEPGSALGHAYLLPFGNGKSKTGQSNVQLIIGYRGMIDLARRSGQIVSISARTVRDGDQFHYEYGLNENLTHIPGENEDAPITHVYAVARLQDGGVQFEVMTRKQVEKVREKSSAGNNGPWVTHWEEMAKKTVIRRLFKYLPVSIEMQKAVILDEKADANIDQDNAAIFEGEFEEVGNDG
B7: SSAP_298: SEQ ID NO: 467; Nocardia aurea (protein, listed as Nocardia aurea)
chain: SESISAAADAQKVTPRIVLDRHRDAFAQVLPPTINLDRWLRLAESAINASAGLLDIFRRDRGASALKALMKCAQLGHEPGSGLFHLVPKGQAIEGWEDYKGILQRILRSALYAKVVVAPVYANDEYAFDVNVDERPRHKQAAGDRGEPVRAYAYAVHRDGSTSTIAEATPAMIAGAKAKGHKTDASTSPWQNPRAPMHQKVAVRELERFVSTSAVDLRVTGDVTDLIIEEP
B8: SSAP_126: SEQ ID NO: 295; Marispirochaeta aestuarii (protein, listed as Marispirochaeta aestuarii)
chain: RTDGTKEAGAAATAPTEGKAPAKAHKPADTIGAMIEKLKPQIERALPKHVTPDRMARMALTAIRNNPKLGQAEAVSLMGSIIQASQLGLEPNTPLGQCYIIPYNSKNGMQAQFQMGYKGIVDLAHRSGQYRQLTAHPVDEADEFRYSYGLNPDLVHVPAEKPSGKITHYYAVYHLTNGGFDFRVWSREKVEAHAKQYSKSFSSGPWQTNFDQMACKTVMIDLLRYAPKSVEIAKATSADNRTHTINPEDPDLNIDTIDGDFELEGEER
B9: SSAP_246: SEQ ID NO: 415; Anoxybacillus (protein, listed as Anoxybacillus sp.)
chain: ATTQSLKNQIAKKQNSNIQQGVTLKQLLNSESMKKRFEEVLGKRAQQFATSILNLYNSEKMLQKCEPMSIISSAMVAASLDLPVDKNLGYMYIVPYGTTATPIMGYRGYIQLALRTGQYKHINVIEVYEGELQKWDRLTEEFEMDSKQKKSDVVVGYAAYFELINGFRKTVYWTREQIEAHRKKYSKSDFGWKNDFDAMAKKTVLKSLLSKWGILSIEMQNAFNEDEKEVDTKEVKDITSEVQEAEYIEAEAFEVPIETETPQQEEIVFDAQ

How the values were obtained:
Format in all cases: cell-based
gene editing with Cas9 = assay: Screen of 322 new SSAP proteins, gene editing activity with Cas9 (Table 5); parameters: Cas9 with SSAP activity: scale not given here
Method in brief: (§1)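 Sequence-mined SSAPs (n=322), synthesized; editing activity screened with Cas9 or dCas9.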

gene editing with dCas9 = assay: Screen of 322 new SSAP proteins, gene editing activity with dCas9 (Table 5); parameters: dCas9 with SSAP activity: scale not given here
Method in brief: as §1

[1] = system: gene editing with Cas9 and dCas9; assay: Screen of 322 new SSAP proteins, activity across all experiments (Cas9 and dCas9, Table 5); parameters: scale not given here
Method in brief: as §1

| Molecule | Cas9 with SSAP activity (gene editing with Cas9) | Cas9 with SSAP activity (normalized) (gene editing with Cas9) | dCas9 with SSAP activity (gene editing with dCas9) | dCas9 with SSAP activity (normalized) (gene editing with dCas9) | Activity across all experiments [1] |
| --- | --- | --- | --- | --- | --- |
| B1 | −5.271 | −0.961 | −3.846 | −0.563 | −4.559 |
| B2 | 0.282 | 0.572 | −3.899 | −0.575 | −1.809 |
| B3 | 0.575 | 0.280 | −3.974 | −0.714 | −1.700 |
| B4 | −1.881 | −0.590 | 1.313 | 1.563 | −0.284 |
| B5 | 0.372 | 0.623 | −3.947 | −0.622 | −1.788 |
| B6 | −0.504 | −0.093 | −3.935 | −0.892 | −2.219 |
| B7 | 0.510 | 0.610 | −3.790 | −0.578 | −1.640 |
| B8 | −3.406 | −0.596 | −3.777 | −0.714 | −3.591 |
| B9 | 0.824 | 0.919 | −3.897 | −0.611 | −1.537 |
